Laboratory results as given in the supplement of paper PMC10065799, “High-throughput profiling of sequence recognition by tyrosine kinases and SH2 domains using bacterial peptide display” (eLife, 2023).

Legend:
FGFR1 = FGFR1 (UniProt P11362); assay: phosphorylation enrichment, bacterial display (enrichment ratio); higher = better substrate or ligand; peptides without Tyr show the background
EPHB1 = EPHB1 (UniProt P54762); assay: as above
Fyn = Fyn (UniProt P06241); assay: as above
EPHB2 = EPHB2 (UniProt P29323); assay: as above
Hck = Hck (UniProt P08631); assay: as above
AncSZ = assay: as above
MERTK = MERTK (UniProt Q12866); assay: as above
Chain of MERTK (Q12866 whole entry, looked up): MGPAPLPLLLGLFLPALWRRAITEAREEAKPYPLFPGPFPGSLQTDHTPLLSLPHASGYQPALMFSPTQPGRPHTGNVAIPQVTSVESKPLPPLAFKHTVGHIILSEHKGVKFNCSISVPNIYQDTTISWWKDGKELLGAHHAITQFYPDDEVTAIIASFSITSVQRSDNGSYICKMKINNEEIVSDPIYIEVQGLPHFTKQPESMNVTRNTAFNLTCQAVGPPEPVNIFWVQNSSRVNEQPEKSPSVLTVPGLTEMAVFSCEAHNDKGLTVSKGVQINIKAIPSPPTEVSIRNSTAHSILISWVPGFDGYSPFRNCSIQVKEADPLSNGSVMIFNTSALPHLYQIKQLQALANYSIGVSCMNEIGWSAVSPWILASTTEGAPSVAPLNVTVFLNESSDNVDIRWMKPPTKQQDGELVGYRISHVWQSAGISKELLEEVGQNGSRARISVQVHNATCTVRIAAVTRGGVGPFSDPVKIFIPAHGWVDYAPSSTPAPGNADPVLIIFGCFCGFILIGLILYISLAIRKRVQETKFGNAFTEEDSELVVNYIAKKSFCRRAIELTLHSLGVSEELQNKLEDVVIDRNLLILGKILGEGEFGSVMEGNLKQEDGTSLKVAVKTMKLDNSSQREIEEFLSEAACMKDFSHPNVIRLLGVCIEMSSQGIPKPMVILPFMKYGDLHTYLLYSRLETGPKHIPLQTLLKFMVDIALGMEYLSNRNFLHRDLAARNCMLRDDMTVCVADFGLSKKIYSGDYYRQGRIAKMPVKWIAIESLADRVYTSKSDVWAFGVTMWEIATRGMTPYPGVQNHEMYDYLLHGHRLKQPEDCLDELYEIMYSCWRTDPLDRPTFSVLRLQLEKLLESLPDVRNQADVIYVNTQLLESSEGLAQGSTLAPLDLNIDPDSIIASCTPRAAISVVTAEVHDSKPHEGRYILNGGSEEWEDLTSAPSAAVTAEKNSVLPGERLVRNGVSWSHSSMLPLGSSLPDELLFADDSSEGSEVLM

Fer (mouse) = assay: as above
FGFR3 = FGFR3 (UniProt P22607); assay: as above
Fes = Fes (UniProt P07332); assay: as above
Chain of Fes (P07332 whole entry, looked up): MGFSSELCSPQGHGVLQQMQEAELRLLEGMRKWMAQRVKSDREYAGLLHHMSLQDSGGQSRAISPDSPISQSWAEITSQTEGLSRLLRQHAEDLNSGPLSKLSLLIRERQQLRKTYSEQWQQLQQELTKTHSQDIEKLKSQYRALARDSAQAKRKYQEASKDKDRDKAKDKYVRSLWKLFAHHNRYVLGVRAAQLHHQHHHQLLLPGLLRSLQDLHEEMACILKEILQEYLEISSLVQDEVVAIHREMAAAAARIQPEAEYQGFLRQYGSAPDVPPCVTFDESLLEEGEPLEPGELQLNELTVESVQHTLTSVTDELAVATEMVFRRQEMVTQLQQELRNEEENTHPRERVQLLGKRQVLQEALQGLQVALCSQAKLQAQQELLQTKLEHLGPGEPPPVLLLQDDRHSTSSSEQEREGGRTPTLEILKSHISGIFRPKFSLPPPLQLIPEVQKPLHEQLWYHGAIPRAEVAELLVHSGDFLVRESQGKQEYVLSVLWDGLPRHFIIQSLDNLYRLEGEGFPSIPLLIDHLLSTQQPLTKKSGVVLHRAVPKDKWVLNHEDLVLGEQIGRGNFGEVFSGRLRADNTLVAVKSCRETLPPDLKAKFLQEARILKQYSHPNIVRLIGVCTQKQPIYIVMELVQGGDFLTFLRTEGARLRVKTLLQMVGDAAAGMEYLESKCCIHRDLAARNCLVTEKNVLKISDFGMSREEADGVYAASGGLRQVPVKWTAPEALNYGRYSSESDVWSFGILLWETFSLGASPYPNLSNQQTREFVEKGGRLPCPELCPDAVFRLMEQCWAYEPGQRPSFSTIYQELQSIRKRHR

Jak2 = Jak2 (UniProt O60674); assay: as above
Chain of Jak2 (O60674 whole entry, looked up): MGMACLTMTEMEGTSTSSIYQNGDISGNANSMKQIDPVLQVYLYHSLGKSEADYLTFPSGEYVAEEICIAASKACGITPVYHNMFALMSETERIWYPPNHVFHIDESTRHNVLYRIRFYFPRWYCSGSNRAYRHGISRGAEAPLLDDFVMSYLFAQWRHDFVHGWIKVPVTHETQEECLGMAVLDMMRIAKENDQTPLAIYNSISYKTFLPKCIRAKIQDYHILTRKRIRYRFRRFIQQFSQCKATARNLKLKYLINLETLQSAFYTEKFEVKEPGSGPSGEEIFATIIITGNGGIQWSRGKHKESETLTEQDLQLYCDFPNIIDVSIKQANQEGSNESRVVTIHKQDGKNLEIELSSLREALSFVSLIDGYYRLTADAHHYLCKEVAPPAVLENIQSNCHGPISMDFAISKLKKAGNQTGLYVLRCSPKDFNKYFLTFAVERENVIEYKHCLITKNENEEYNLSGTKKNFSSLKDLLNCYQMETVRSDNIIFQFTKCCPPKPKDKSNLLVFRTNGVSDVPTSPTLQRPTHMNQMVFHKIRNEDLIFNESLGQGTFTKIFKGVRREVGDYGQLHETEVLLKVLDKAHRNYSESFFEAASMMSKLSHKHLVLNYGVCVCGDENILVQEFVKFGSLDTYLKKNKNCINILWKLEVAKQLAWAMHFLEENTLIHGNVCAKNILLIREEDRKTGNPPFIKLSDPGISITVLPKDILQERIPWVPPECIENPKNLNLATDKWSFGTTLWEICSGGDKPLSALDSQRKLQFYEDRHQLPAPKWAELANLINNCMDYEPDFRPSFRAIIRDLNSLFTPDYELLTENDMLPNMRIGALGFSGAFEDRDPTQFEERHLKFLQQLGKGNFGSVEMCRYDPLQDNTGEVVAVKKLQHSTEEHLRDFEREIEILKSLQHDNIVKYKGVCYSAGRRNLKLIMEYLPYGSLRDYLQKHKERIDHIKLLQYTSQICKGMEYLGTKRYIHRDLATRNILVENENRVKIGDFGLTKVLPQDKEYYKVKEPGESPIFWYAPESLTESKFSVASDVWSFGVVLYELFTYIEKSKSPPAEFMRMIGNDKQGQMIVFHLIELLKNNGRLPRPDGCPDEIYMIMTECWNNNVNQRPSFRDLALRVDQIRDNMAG

c-Abl (mouse) = assay: as above
c-Src = assay: as above
Grb2 SH2 = Grb2 SH2 (UniProt P62993); assay: SH2 binding enrichment of the phosphorylated peptide, bacterial display (enrichment ratio); higher = better substrate or ligand; peptides without Tyr show the background
Chain of Grb2 SH2 (P62993 whole entry, looked up): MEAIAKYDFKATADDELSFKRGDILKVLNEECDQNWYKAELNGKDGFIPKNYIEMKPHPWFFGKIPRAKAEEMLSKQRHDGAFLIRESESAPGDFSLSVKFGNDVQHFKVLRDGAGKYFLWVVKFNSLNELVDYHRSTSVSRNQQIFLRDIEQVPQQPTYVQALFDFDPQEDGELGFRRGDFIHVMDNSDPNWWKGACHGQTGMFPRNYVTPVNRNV

c-Src SH2 = assay: as above
SHP2-C SH2 = assay: as above
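Throughout, for SH2 binding enrichment of the phosphorylated peptide, bacterial display: peptide library displayed on the E. coli surface as eCPX fusions, selected cells deep-sequenced, score is each peptide's frequency after selection divided by its frequency in the input.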
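Throughout, for phosphorylation enrichment, bacterial display: 11-residue human phosphosite peptides and single-mutation variants displayed on the E. coli surface, counted by deep sequencing, each peptide's frequency after selection divided by its frequency in the unselected input library; frequency after pTyr selection over input frequency; kinase dosed for 20-30% of maximal phosphorylation in three min.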

Chain of EPHB1 (P54762 whole entry, looked up): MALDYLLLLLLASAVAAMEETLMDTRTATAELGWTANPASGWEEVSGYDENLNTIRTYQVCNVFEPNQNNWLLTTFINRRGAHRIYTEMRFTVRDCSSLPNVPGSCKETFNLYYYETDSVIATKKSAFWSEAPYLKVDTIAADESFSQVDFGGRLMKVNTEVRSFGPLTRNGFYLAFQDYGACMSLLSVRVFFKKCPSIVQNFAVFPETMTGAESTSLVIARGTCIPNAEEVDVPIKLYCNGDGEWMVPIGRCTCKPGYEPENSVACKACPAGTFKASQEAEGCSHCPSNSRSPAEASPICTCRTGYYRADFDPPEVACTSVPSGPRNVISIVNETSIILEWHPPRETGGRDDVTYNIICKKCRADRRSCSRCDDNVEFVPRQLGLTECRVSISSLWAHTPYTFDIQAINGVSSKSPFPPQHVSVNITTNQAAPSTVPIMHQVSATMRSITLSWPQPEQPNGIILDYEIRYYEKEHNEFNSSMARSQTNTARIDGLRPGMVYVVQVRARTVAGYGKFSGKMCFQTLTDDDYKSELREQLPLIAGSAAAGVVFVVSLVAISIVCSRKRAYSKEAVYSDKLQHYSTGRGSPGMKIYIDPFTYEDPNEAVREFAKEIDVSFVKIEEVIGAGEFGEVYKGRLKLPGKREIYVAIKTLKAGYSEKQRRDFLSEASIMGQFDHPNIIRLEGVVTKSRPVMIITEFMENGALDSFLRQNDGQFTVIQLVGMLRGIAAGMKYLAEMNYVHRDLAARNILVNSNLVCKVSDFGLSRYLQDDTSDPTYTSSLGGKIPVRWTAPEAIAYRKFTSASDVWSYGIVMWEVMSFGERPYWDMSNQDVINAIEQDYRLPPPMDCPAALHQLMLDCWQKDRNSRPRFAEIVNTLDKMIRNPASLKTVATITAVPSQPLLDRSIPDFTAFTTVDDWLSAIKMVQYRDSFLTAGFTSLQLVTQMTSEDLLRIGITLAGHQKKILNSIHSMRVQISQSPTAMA
Chain of FGFR1 (P11362 whole entry, looked up): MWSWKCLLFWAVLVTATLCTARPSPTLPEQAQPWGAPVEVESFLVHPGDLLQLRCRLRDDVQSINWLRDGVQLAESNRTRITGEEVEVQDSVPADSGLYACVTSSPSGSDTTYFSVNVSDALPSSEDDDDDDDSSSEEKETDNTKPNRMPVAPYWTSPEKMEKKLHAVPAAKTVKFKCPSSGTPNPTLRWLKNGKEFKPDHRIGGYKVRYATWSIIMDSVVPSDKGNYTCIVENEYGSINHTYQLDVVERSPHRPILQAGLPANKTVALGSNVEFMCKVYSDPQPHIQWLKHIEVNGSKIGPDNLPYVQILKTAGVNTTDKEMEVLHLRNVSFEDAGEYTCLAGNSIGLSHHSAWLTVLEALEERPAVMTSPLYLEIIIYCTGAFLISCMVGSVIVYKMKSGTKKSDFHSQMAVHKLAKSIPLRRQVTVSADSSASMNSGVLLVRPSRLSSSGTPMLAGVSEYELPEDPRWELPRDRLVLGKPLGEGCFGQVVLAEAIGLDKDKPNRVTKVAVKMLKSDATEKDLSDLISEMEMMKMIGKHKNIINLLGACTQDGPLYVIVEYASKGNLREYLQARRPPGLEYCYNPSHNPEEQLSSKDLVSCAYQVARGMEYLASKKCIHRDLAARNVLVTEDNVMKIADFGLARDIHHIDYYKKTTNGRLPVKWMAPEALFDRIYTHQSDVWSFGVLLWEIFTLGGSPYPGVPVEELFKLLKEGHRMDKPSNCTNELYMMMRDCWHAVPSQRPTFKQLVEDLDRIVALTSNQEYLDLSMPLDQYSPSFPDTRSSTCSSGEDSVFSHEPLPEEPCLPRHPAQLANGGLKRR

Row | Sequence | phosphorylation enrichment (FGFR1) | phosphorylation enrichment (EPHB1) | phosphorylation enrichment (Fyn) | phosphorylation enrichment (EPHB2) | phosphorylation enrichment (Hck) | phosphorylation enrichment (AncSZ) | phosphorylation enrichment (MERTK) | phosphorylation enrichment (Fer (mouse)) | phosphorylation enrichment (FGFR3) | phosphorylation enrichment (Fes) | phosphorylation enrichment (Jak2) | phosphorylation enrichment (c-Abl (mouse)) | phosphorylation enrichment (c-Src) | SH2 binding enrichment (Grb2 SH2) | SH2 binding enrichment (c-Src SH2) | SH2 binding enrichment (SHP2-C SH2)
1 | FSIAQYCCRMG [LRRK2_Y2023_G2019S_YF] | 0.479 | 0.684 | 0.401 | 5.07 | 0.449 | 0.839 | 0.994 | 0.4 | 0.57 | 0.868 | 0.758 | 1.03 | 0.425 | 1.17 | 0.981 | 0.826
2 | PEPHIYAVADV [MYO9A_Y216_L211P] | 0.667 | 1.11 | 3.21 | 2.18 | 3.16 | 1.11 | 2.97 | 3.02 | 1.01 | 1.55 | 0.695 | 25 | 3.72 | 0.909 | 4.08 | 0.654
3 | RFLRGYRQYAY [HLA-A_Y137_D140Y] | 0.77 | 1.33 | 1.29 | 0.752 | 0.634 | 1.61 | 0.846 | 0.577 | 0.669 | 1.19 | 4.7 | 1.56 | 1.56 | 0.92 | 0.322 | 0.602
4 | GCKKRYDKDKP [THAP1_Y14_N12K] | 0.506 | 0.449 | 0.396 | 0.534 | 0.452 | 0.833 | 0.6 | 0.445 | 0.703 | 0.702 | 0.529 | 0.621 | 0.531 | 0.755 | 0.337 | 0.386
5 | QTLEAYIRCNK [SPAST_Y604_W607C] | 0.559 | 0.906 | 0.438 | 0.738 | 0.951 | 1.12 | 0.624 | 0.452 | 1.1 | 1.36 | 1.44 | 0.887 | 0.372 | 0.76 | 0.474 | 0.626
6 | DPASAYADEVK [ETNPPL_Y189_S185P] | 0.473 | 0.628 | 0.492 | 0.469 | 0.557 | 1.06 | 0.435 | 0.495 | 0.724 | 1.2 | 1.06 | 0.794 | 0.416 | 0.941 | 0.671 | 0.462
7 | LKSEMYQKLFK [RGS13_Y146_L150F] | 0.715 | 0.5 | 0.493 | 0.614 | 0.756 | 1.02 | 0.7 | 0.596 | 0.923 | 0.993 | 1.77 | 0.769 | 0.626 | 0.829 | 0.982 | 1.24
8 | TGDVQYRSSVR [FREM2_Y2158] | 0.468 | 0.292 | 0.331 | 0.423 | 0.357 | 0.529 | 0.398 | 0.385 | 0.397 | 0.534 | 0.408 | 0.459 | 0.357 | 1.02 | 0.433 | 0.631
9 | DPLLTYQFPPK [LMNA_Y481_R482Q] | 1.69 | 0.597 | 1.24 | 1.27 | 0.986 | 1.25 | 0.796 | 0.498 | 1.17 | 0.773 | 0.566 | 0.549 | 1.54 | 1.04 | 0.546 | 0.657
10 | FLEEEYVKAVG [TF_Y674_G671E_YF] | 0.517 | 0.59 | 0.558 | 0.67 | 0.517 | 1.19 | 0.424 | 0.49 | 0.721 | 1.16 | 1.18 | 0.679 | 0.528 | 1.08 | 0.569 | 0.934
11 | PLQKTYNYNVL [SLC4A1_Y553] | 0.711 | 0.66 | 0.495 | 0.689 | 0.596 | 0.872 | 0.43 | 0.628 | 0.691 | 1.08 | 0.986 | 0.881 | 0.565 | 0.708 | 1.12 | 0.766
12 | QELRRYLESGV [MICA_Y194_K196E] | 0.62 | 0.749 | 0.772 | 1.54 | 0.489 | 0.597 | 0.49 | 0.486 | 0.662 | 0.812 | 1.16 | 0.616 | 0.465 | 0.729 | 0.397 | 0.596
13 | SVTCTYSPALK [TP53_Y126_N131K] | 0.407 | 0.407 | 0.467 | 0.567 | 0.498 | 0.97 | 0.405 | 0.353 | 0.602 | 1.02 | 0.866 | 0.839 | 0.557 | 0.697 | 0.523 | 0.518
14 | DTKAFYPEEIS [HSPA1A_Y115_E110D] | 0.482 | 0.456 | 0.441 | 0.579 | 0.393 | 1.05 | 0.432 | 0.479 | 0.88 | 1.1 | 0.933 | 0.752 | 0.523 | 0.927 | 0.445 | 0.574
15 | EKIANYKEGTY [CLRN1_Y171] | 0.45 | 0.573 | 0.546 | 0.389 | 0.489 | 0.671 | 0.41 | 0.552 | 0.449 | 0.704 | 0.654 | 0.76 | 0.468 | 0.803 | 0.433 | 0.641
16 | KLFFIYTSGTT [SLC27A4_Y245_YF] | 0.531 | 0.633 | 0.435 | 0.646 | 0.424 | 1.16 | 0.398 | 0.529 | 0.813 | 1.19 | 1.1 | 0.967 | 0.345 | 0.801 | 0.478 | 0.664
17 | DFLSSYSAVNQ [OAT_Y85] | 0.433 | 0.658 | 0.427 | 0.493 | 0.531 | 1.04 | 0.558 | 1.17 | 0.698 | 0.947 | 0.997 | 0.703 | 0.61 | 1.1 | 2.01 | 3.8

Row | Sequence | phosphorylation enrichment (FGFR1) | phosphorylation enrichment (EPHB1) | phosphorylation enrichment (Fyn) | phosphorylation enrichment (EPHB2) | phosphorylation enrichment (Hck) | phosphorylation enrichment (AncSZ) | phosphorylation enrichment (MERTK) | phosphorylation enrichment (Fer (mouse)) | phosphorylation enrichment (FGFR3) | phosphorylation enrichment (Fes) | phosphorylation enrichment (Jak2) | phosphorylation enrichment (c-Abl (mouse)) | phosphorylation enrichment (c-Src) | SH2 binding enrichment (Grb2 SH2) | SH2 binding enrichment (c-Src SH2) | SH2 binding enrichment (SHP2-C SH2)
18 | LSIQTYSALNF [DES_Y423_P419S] | 0.991 | 3.92 | 4.8 | 4.34 | 6.9 | 1.58 | 6.97 | 2.61 | 1.09 | 2.14 | 1.76 | 1.46 | 5.21 | 0.824 | 1.34 | 1.43
19 | IVEFAYNDKAV [PUM3_Y259_I264V_YF] | 0.59 | 0.561 | 0.52 | 0.632 | 0.573 | 1.09 | 0.527 | 0.462 | 0.767 | 0.938 | 0.968 | 0.705 | 0.547 | 0.85 | 0.414 | 0.787
20 | WKESWYSMRKM [FGB_Y475_G472E] | 0.513 | 0.714 | 0.554 | 0.669 | 0.591 | 1.05 | 0.544 | 0.535 | 0.738 | 1.34 | 1.33 | 0.792 | 0.672 | 1.08 | 0.708 | 0.969
21 | ILGRYYETGSI [PAX2_Y73] | 0.848 | 0.546 | 0.562 | 0.594 | 0.49 | 0.685 | 0.707 | 0.459 | 0.834 | 0.68 | 0.643 | 0.535 | 0.455 | 0.817 | 1.8 | 0.649
22 | FNNPAYYVLEG [INPPL1_Y986] | 12.1 | 0.851 | 1.75 | 0.704 | 1.11 | 1.2 | 7.95 | 0.485 | 9.49 | 0.958 | 4.76 | 0.767 | 2.06 | 0.992 | 3.95 | 1.12
23 | IRTDAYVQAMT [RPE65_Y89_R91Q] | 0.458 | 0.378 | 0.49 | 0.471 | 0.608 | 0.543 | 0.374 | 0.41 | 0.503 | 0.644 | 0.529 | 0.572 | 0.446 | 0.89 | 0.617 | 0.662
24 | GPCKAYELSQR [SETX_Y1297_R1294C] | 0.547 | 0.416 | 0.533 | 0.63 | 0.467 | 0.735 | 0.451 | 0.496 | 0.547 | 0.969 | 0.66 | 0.664 | 0.546 | 0.775 | 0.634 | 0.958
25 | PSQRCYVYYYS [PTEN_Y174_R173C] | 1.41 | 0.931 | 1.09 | 0.556 | 1.03 | 2.35 | 2.02 | 0.807 | 1.8 | 2.28 | 2.59 | 1.77 | 3.16 | 0.825 | 0.286 | 0.645
26 | IIWDSYTTNKM [GNB4_Y85] | 0.575 | 0.68 | 0.682 | 0.656 | 0.506 | 1.3 | 0.401 | 0.527 | 0.671 | 1.21 | 0.873 | 0.596 | 0.321 | 0.941 | 0.438 | 0.886
27 | PRAEWYRDDVL [MYOM2_Y317] | 0.507 | 0.959 | 0.572 | 0.725 | 0.586 | 1.31 | 0.681 | 0.767 | 0.818 | 1.46 | 1.11 | 0.879 | 0.546 | 0.802 | 0.585 | 0.637
28 | LQTYRYHGLSM [PDHA1_Y289_H292L] | 0.749 | 0.673 | 0.703 | 0.746 | 0.648 | 0.927 | 0.443 | 0.572 | 0.915 | 1.13 | 0.576 | 0.564 | 0.471 | 1.25 | 0.399 | 0.815
29 | LDPMVYMNDKS [PTK2B_Y834] | 0.727 | 0.727 | 0.55 | 0.595 | 0.386 | 1.09 | 0.648 | 0.678 | 0.586 | 1.28 | 1.25 | 0.843 | 0.669 | 2.36 | 1.01 | 0.792
30 | NDTAGYFVIGG [SEL1L3_Y399_I401V] | 2.16 | 0.669 | 0.848 | 0.642 | 0.75 | 1.17 | 0.872 | 0.581 | 1.64 | 1.1 | 6.88 | 0.781 | 0.727 | 0.664 | 7.22 | 0.784
31 | CTTIHYNYMHN [TP53_Y234_C238H] | 0.479 | 0.528 | 0.447 | 0.536 | 0.407 | 0.692 | 0.433 | 0.488 | 0.521 | 0.767 | 0.531 | 0.446 | 0.349 | 0.995 | 1.86 | 0.857
32 | SLNAVYPRAGR [OAS3_Y376_S381R] | 0.415 | 0.354 | 0.471 | 0.414 | 0.405 | 0.763 | 0.409 | 0.384 | 0.445 | 0.692 | 0.655 | 0.488 | 0.525 | 0.851 | 0.466 | 0.63
33 | DAANNYARGHY [TUBA3E_Y103_S101N] | 0.469 | 0.412 | 0.421 | 0.37 | 0.436 | 0.691 | 0.528 | 0.355 | 0.45 | 0.575 | 0.546 | 0.559 | 0.442 | 0.85 | 0.509 | 0.558
